# According to the DeepSol protein solubility set:
# Assay: soluble on expression in E. coli; label from the status in PepcDB or PDB records
row,Sequence,soluble on expression in E. coli
1,MASEIHMTGPMCLIENTNGRLMANPEALKILSAITQPMVVVAIVGLYRTGKSYLMNKLAGKKKGFSLGSTVQSHTKGIWMWCVPHPKKPGHILVLLDTEGLGDVEKGDNQNDSWIFALAVLLSSTFVYNSIGTINQQAMDQLYYVTELTHRIRSKSSPDENENEVEDSADFVSFFPDFVWTLRDFSLDLEADGQPLTPDEYLTYSLKLKKGTSQKDETFNLPRLCIRKFFPKKKCFVFDRPVHRRKLAQLEKLQDEELDPEFVQQVADFCSYIFSNSKTKTLSGGIQVNGPRLESLVLTYVNAISSGDLPCMENAVLALAQIENSAAVQKAIAHYEQQMGQKVQLPTESLQELLDLHRDSEREAIEVFIRSSFKDVDHLFQKELAAQLEKKRDDFCKQNQEASSDRCSGLLQVIFSPLEEEVKAGIYSKPGGYRLFVQKLQDLKKKYYEEPRKGIQAEEILQTYLKSKESMTDAILQTDQTLTEKEKEIEVERVKAESAQASAKMLHEMQRKNEQMMEQKERSYQEHLKQLTEKMENDRVQLLKEQERTLALKLQEQEQLLKEGFQKESRIMKNEIQDLQTKMRRRKACTIS,soluble
2,MASEKPLAAVTCTAPVNIAVIKYWGKRDEELVLPINSSLSVTLHQDQLKTTTTAVISKDFTEDRIWLNGREEDVGQPRLQACLREIRCLARKRRNSRDGDPLPSSLSCKVHVASVNNFPTAAGLASSAAGYACLAYTLARVYGVESDLSEVARRGSGSACRSLYGGFVEWQMGEQADGKDSIARQVAPESHWPELRVLILVVSAEKKLTGSTVGMRASVETSPLLRFRAESVVPARMAEMARCIRERDFPSFAQLTMKDSNQFHATCLDTFPPISYLNAISWRIIHLVHRFNAHHGDTKVAYTFDAGPNAVIFTLDDTVAEFVAAVWHGFPPGSNGDTFLKGLQVRPAPLSAELQAALAMEPTPGGVKYIIVTQVGPGPQILDDPCAHLLGPDGLPKPAA,soluble
3,MASGDFRLCDVVLDDSIGRSTPDVEHERAVAIFDLIEENTFEPAGHDGGPYRLHISLVDAKLVFAIKTEDDKDVSTHILSLTPFRRIIKDYFLICESYYEAIRSSTPSQIEAIDMGRRGIHNDGSQTLMDRLSGKIKVDFDTARRLFTLVCVLYWRG,not soluble
4,MASKEAHVSLARGEQSVKRIKEFDPGKDSFSVLLLGIDAREKNGETVDQARSDANVLVTFNRKEKTAKMLSIPRDAYVNIPGHGYDKFTHAHAYGGVDLTVKTVEEMLDIPVDYVVESNFTAFEDVVNELNGVKVTVKSDKVIQQIKKDTKGKVVLQKGTHTLDGEEALAYVRTRKADSDLLRGQRQMEVLSAIIDKSKSLSSIPAYDDIVDTMGQNLKMNLSLKDAIGLFPFITSLKSVESIQLTGYDYEPAGVYYFKLNQQKLQEVKKELQNDLGVLEHHHHHH,soluble
5,MASKLLQLKSKACEASKFVSKHGTTYYKQLLDKNKMYIQEPATIEKCNELSKQLLYTRLASIPGRSESFWKEVNHVKGLWKNRADLKVEDAGIAALFGLECFAWYCAGEIVGRGFTFTGYYP,not soluble
6,MASKTIIVMSDSHGDRDIVQAIKDKYLGQVDAIFHNGDSELNSSDPIWAGIYVVGGNCDYDTGYPDRLVTQLGTVTIAQTHGHLYHINFTWDKLDYFAQEVVADICLYGHLHRPAAWQVGQTLFMNPGSVTQPRGEINEKLYARVELTDTQIKVDYFTRDHKLYPSLSKEFKR,not soluble
7,MASLEVSRSPRRSRRELEVRSPRQNKYSVLLPTYNERENLPLIVWLLVKSFSESGINYEIIIIDDGSPDGTRDVAEQLEKIYGSDRILLRPREKKLGLGTAYIHGMKHATGNYIIIMDADLSHHPKFIPEFIRKQKEGNFDIVSGTRYKGNGGVYGWDLKRKIISRGANFLTQILLRPGASDLTGSFRLYRKEVLEKLIEKCVSKGYVFQMEMIVRARQLNYTIGEVPISFVDRVYGESKLGGNEIVSFLKGLLTLFATT,not soluble
8,MASLSQTPPDLPLCRGDRVRMSPLGRERHPRYGTREGVIVGQGSPSSWRVKFDDRKTIQAIHQDYLERVPAQAARFDSSEIWNGWRNDPPATA,not soluble
9,MASTFNPRECKLSKQEGQNYGFFLRIEKDTDGHLIRVIEEGSPAEKAGLLDGDRVLRINGVFVDKEEHAQVVELVRKSGNSVTLLVLDGDSYEKAVKNQVDLKELDQSQREAALNDKKPGPGMNGAVEPCAQPRLCYLVKEGNSFGFSLKTIQGKKGVYLTNIMPQGVAMKAGVLADDHLIEVNGENVENASHEEVVEKVTKSGSRIMFLLVDKETARCHSEQKTQFKRETASLKLLPHQPRVVVIKKGSNGYGFYLRAGPEQKGQIIKDIEPGSPAEAAGLKNNDLVVAVNGKSVEALDHDGVVEMIRKGGDQTTLLVLDKEAESIYSLARFSPLLYCQSQELPNGSVKEGPAPIPAPLEATGSEPTEDAEGHKPKLCRLLKEDDSYGFHLNAIRGQPGSFVKEVQQGGPADKAGLENEDVIIEVNGENVQEEPYDRVVERIKSSGKHVTLLVCGKMAYSYFQAKKIPIVSSMAEPLVAGPDEKGETSAESEHDAHPAKDRTLSTASHSSSNSEDTEM,soluble
10,MASTIAFPAMVKELRLSKNLTMEQLAEEVGKTKSTISKWEKGTRSPKIYEIEEIAKFFGVEPKKMMFGDNPTPTAPQVELIPSTLQKINSTSSQLEHKRQLNVLDYAETQLEQQNTVEEPQATYYTYNYYDHAASAGTGQYLNDVQVETIELPVDYDADFVIPVYGDSMEPKYHSGDYVFVKLSVELTDGDIGVFEYYGDAYIKQLLINDKGAFLHSLNQCGDYPDIPIDRDSDFRIIGEVMGSYRER,not soluble
11,MASVALALWERVLANVVPRQSIAVIGAGVSGLSAAWLLSHRHDVTLYEADNRLGGHANTIIAEGVAVDTGFIVYNEPNYPNLTALFRHIGVETTETDMSFGVSLDGGALEYSSTKLLAQKRNVANPRFIKMLLDVVRFYREGRNIPADLEQGGLCRLDDYLRRQGFGRAFQEDHLLPQAAAIWSASMRDIREFPAAALLRFFDNHGLMLPIDKRPIWRTVVGGSARYVEKLAAGVSGPILTGRPVKAIHRGPDGVRIEDATGETRAFDHVVIGAHADQALSMLAAPSAEERELLGAFRYSRNRAVLHSDPALMPRRRGAWASWNHVGRRGEDGEGGVTYWMNILQPLGVERPYFLSLNPMQDPAGLMHDQVYEHPLFDGPAMLAQRRLWSLQGRRRTWFCGAYFGSGFHEDGLQAGLAVAEQLGGVRRPWLVPNPSGRIVLDVADQAADRELVALEHHHHHH,not soluble
12,MASVHGITVKNAQGEDTPLSNYQGKVLIIVNVASQCGLTNSNYNQFKELLDVYKKDGLEVLAFPCNQFGGQEPSCEIDIAAFVADKFKFEPTLFQKIDVNGDNTAPLYKFLKQEKGGFLVDAIKWNFTKFLVGRDGHVIKRFSPTTEPKDMKKDIEAALQAKL,not soluble
13,MASYLPSEWQDDLKMNGLMSVMKERHVNKVDYDRKLRFWTDAIYGSCIGEKNATFNLLELKKRFRRNDRVPASLDVILDHLKKKGDVITIGEWRDRHSSWVGWGFSKTKGWMFGASSDSEQLLHLPTIKKLGQEILDIYNEELRSEIDCTGEVVTYNEMFDRASNIISKIETFDIVLEHLNDIGELTVGTTRNGEKVLKFKDNGSEDPVKFTEADASVVDIRKAMNKLDREIQQLEQKVKKYDEQCRACLRTGDKGRAQNFLRQRKRAEKDIADKDVQYQKLLTMLHQISSAKNNKDVLQAYKSGTAAFKATLARQGLSPDKIHETMDDVVNSMDEYKEIEEAISSPFVNANGFNDADLEQELEDLISDNKKNESVHLPEAPTNRFGLFDKEVTPEEDQLEKRLARLRQAI,not soluble
14,MATALYTANDFILISLPQNAQPVTAPGSKTDSWFNETLIGGRAFVSDFKIPEFKIGSLDTLIVESEELSKVDNQIGASIGKIIEILQGLNETSTNAYRTLPINNMPVPEYLENFQWQTRKFKLDKSIKDLITLISNESSQLDADVRATYANYNSAKTNLAAAERKKTGDLSVRSLHDIVKPEDFVLNSEHLTTVLVAVPKSLKSDFEKSYETLSKNVVPASASVIAEDAEYVLFNVHLFKKNVQEFTTAAREKKFIPREFNYSEELIDQLKKEHDSAASLEQSLRVQLVRLAKTAYVDVFINWFHIKALRVYVESVLRYGLPPHFNIKIIAVPPKNLSKCKSELIDAFGFLGGNAFMKDKKGKINKQDTSLHQYASLVDTEYEPFVMYIINL,soluble
15,MATDTSSPKHEPIIIAVEPYGGSVRDHSPLLPLVYWDDAAVTRGDGVFETILFRHGRACNLERHAQRFRESAVLLDLPEPRLDHWVHATSMAVEKWFQQSESDAKCVWTYTRGRASTGHPSAWLTITAVPDCVIEQREQGVRVMTTPRGYHIDTSNSVPWVVIGAKTLNYASNMAALRWAKKEGFDDVIFTEQDRILEGATSTVVTFRGNKIRSPFPGGDVLPGTTQAALFDYATNLGWNCKLKDMDEVYLTEKADSVWLISSVRGATRVRRINDTKLPRPDNESEIRELIEAALTAL,not soluble
16,MATEQHLRQQLAAAYRLAALFGWEDTLYTHFSVRLPGDGEPRFLINPFGMMFDEVTASNLIVVDMQGKVVAGDAPANSAGFTIHSAVHMAREDAHCVIHTHTLPGMAVAACEDGLLQLNQISTEFYQRVGYHPYEGVAFDLDERARIQRSLGNNIAMILQSHGLLSVGRTVADAFYIMYYLNRACEIQMATAQLAALSPIHTIAPHLSQHACEQLMGVEHERQQVWQAWLRRLDRLDTSYKD,not soluble
17,MATFGFLSAPLKSTNEVDLVKPLTSYIDNVYNTSDNNRSDVAEAVQELNKLRSKACCQPLDKHQSALDVLTRYYDQLVAIENKIIISATQNPVVFKWKDAFDKGSLFSSRASLSLSDGSFERAAVLFNIGSLMSQIGAAQQFHTDDEIKVSAKLFQQSAGVFARLRDVVLGMVQQEPTPDLMPDTLAALSALMTAQAQEAIYIKGHKDKMKATSMVKISAQVAEFYSEAQKMMSKDIVRGLWDKDWSAIVSGKNLAYQALAQYHQSEVCGEARQIGEQLSRLAESLKLFDTAQKYLPRDITGIWDIYPSVSKAHAAAKKDNDFIYHEKVSDFRTLPTLPKAVLAKPTPMQTPMTPSFRDMFAVLVPVQVHNAMQSYDARKAELVNMETVRMREATQLMNGVLASLNLPAALDDVTSTETLPESLKLKSAKLKQNGGSSEIMRLFSELPTLYQRNEDILTETSRILNEEKESDDTMRKQLGTKWTRMSSEQLTGPLVTEIGKYRGILHTASNADKMVKEKFESHRQGIELLSKNESELRSSIPGQTAHATGETDTVRQLRQFMSQWNEVTTDRELLEKELKNTNCDIANDFLKAMAENQLINEEHISKEKIAQIFGDLKRRVQSSLDTQETLMNQIQAANNTFTGEKTGSSTGAERERILKMLAQASDAYVELKANLEEGTKFYNDLTPILVRLQQKVSDFAFARQTEKEDLMRQLQLSIVSGTNAAQSPANAPPRPPPPRPAAPSVESPIPPPRTQQSMQATPGAPPQYNPYQQQQQPQMQQFQQHPGYYQQPMPYGQPQPMFQPQYQPTFAAPYPTFPGAFPSYQQQWPQQQQQGGFPPNPQFGQQNQQQGGGGGANPFQ,not soluble
18,MATITDIAKVANVSISTVSRVLNYDPNLSVTEETKRKIFEAAETLNYTKYKTKNKNKQQEQLTPNLSVQTAPQEPSIAVVQWRSDDEELTDIYYMSIRLGAEKRAEELGYNILKVSQLEQHNLQGIDGILAIGKFTQKTLQELQQLHPNLCVIGSNFPLEEFDSVNTDFYQATEIALTHLLELGHEKIAFIGAEESENMYGFRRYKTPTTNAYLDIMQHYHLFNEDYFILKENGMLDVKTGEQLTEEALEKWGNDLPTAILAYNDAFAIGVIHTLAAHGIKVPEEISVMGINDISISQYVSPPLSSVHAFTEEMGETGINLLHKRIQMPSIPRRVLLNTELVVRQSTTSPRQK,soluble
